From article PMC9666628 (Nature Communications, 2022)

T1: Cbx7.V1 (tags removed, used for FP and ITC) (human, UniProt O95931 7-66, E8D (printed as the back-mutation D8E) | Q9D | V10I (printed as the …))
T1 construct: chromodomain of human Cbx7 (Cbx7-chromo), UniProt O95931; source: E. coli BL21(DE3), purified (Ni-NTA; tags removed with TEV protease)
T1 sequence: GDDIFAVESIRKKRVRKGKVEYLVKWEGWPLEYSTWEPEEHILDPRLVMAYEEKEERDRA

T2: wild-type Cbx7 chromodomain (tags removed) (human, UniProt O95931 7-66)
T2 construct: chromodomain of human Cbx7 (Cbx7-chromo), UniProt O95931; also called Cbx7.wt; source: E. coli BL21(DE3), purified (Ni-NTA; tags removed with TEV protease)
T2 sequence: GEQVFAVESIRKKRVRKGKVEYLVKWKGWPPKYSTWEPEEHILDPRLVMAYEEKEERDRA

T3: Cbx7 Q9D chromodomain (tags removed) (human, UniProt O95931 7-66, Q9D)
T3 construct: chromodomain of human Cbx7 (Cbx7-chromo), UniProt O95931; source: E. coli BL21(DE3), purified (Ni-NTA; tags removed with TEV protease)
T3 sequence: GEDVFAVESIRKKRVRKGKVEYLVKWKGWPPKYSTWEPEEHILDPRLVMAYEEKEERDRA

T4: Cbx7 K33E chromodomain (tags removed) (human, UniProt O95931 7-66, K33E)
T4 construct: chromodomain of human Cbx7 (Cbx7-chromo), UniProt O95931; source: E. coli BL21(DE3), purified (Ni-NTA; tags removed with TEV protease)
T4 sequence: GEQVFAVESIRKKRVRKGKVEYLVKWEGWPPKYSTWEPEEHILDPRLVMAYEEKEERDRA

T5: Cbx7.VD chromodomain, Q9D/K33E (tags removed) (human, UniProt O95931 7-66, Q9D | K33E)
T5 construct: chromodomain of human Cbx7 (Cbx7-chromo), UniProt O95931; source: E. coli BL21(DE3), purified (Ni-NTA; tags removed with TEV protease)
T5 sequence: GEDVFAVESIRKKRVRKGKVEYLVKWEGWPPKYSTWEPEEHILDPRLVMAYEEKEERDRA

T6: wild-type Cbx2 chromodomain (tags removed) (human, UniProt Q14781 9-62)
T6 construct: chromodomain of human Cbx2; also called Cbx2.wt; source: E. coli BL21(DE3), purified (Ni-NTA; tags removed with TEV protease)
T6 sequence: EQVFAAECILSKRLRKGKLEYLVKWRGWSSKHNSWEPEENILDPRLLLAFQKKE

T7: wild-type Cbx8 chromodomain (tags removed) (human, UniProt Q9HC52 8-61)
T7 construct: chromodomain of human Cbx8; also called Cbx8.wt; source: E. coli BL21(DE3), purified (Ni-NTA; tags removed with TEV protease)
T7 sequence: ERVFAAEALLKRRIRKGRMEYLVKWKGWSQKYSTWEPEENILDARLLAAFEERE

B1: H3K9me3 peptide, N-terminal FITC (peptide)
chain: ARTKQTARKSTGGKAPR
modifications: trimethyl-lysine at K9; fluorescein isothiocyanate (FITC) at the N-terminus

Key:
Assay in all cases: fluorescence polarisation; 0.5 nM FITC-labelled peptide; chromodomains 200-0.2 µM (wild type) or 50 µM-50 nM (Cbx7.V1 and all Cbx.VDs); 30 min at 25 °C; 25 mM HEPES pH 7.5, 150 mM NaCl, 1 mM DTT, 0.01% TritonX-100; one-site total binding model
Conditions in all cases: both partners purified
[1] = target: T1, Cbx7.V1 (tags removed, used for FP and …)
[2] = target: T2, wild-type Cbx7 chromodomain (tags …)
[3] = target: T3, Cbx7 Q9D chromodomain (tags removed)
[4] = target: T4, Cbx7 K33E chromodomain (tags removed)
[5] = target: T5, Cbx7.VD chromodomain, Q9D/K33E (tags …)
[6] = target: T8, wild-type Cbx1 chromodomain (tags removed) (human, UniProt P83916 20-73)
T8 construct: chromodomain of human Cbx1; also called Cbx1.wt; source: E. coli BL21(DE3), purified (Ni-NTA; tags removed with TEV protease)
T8 sequence (P83916 20-73, looked up): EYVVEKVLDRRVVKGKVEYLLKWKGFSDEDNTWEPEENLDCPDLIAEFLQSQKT

[7] = target: T9, wild-type Cbx3 chromodomain (tags removed) (human, UniProt Q13185 29-86)
T9 construct: chromodomain of human Cbx3; also called Cbx3.wt; source: E. coli BL21(DE3), purified (Ni-NTA; tags removed with TEV protease)
T9 sequence (Q13185 29-86, looked up): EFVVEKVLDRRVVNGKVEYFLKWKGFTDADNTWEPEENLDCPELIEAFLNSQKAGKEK

[8] = target: T10, wild-type Cbx5 chromodomain (tags removed) (human, UniProt P45973 18-75)
T10 construct: chromodomain of human Cbx5; also called Cbx5.wt; source: E. coli BL21(DE3), purified (Ni-NTA; tags removed with TEV protease)
T10 sequence (P45973 18-75, looked up): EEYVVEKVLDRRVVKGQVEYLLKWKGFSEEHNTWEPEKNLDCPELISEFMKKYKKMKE

[9] = target: T6, wild-type Cbx2 chromodomain (tags …)
[10] = target: T7, wild-type Cbx8 chromodomain (tags …)
[11] = target: B1

Kd [1] | Kd [2] | Kd [3] | Kd [4] | Kd [5] | Kd [6] | Kd [7] | Kd [8] | Kd [9] | Kd [10] | Kd [11] | Binder
7 µM | 30 µM | 10 µM | 20 µM | 8 µM | 0.5 µM | 2 µM | 5 µM | > 200 µM | > 200 µM |  | B1
 |  |  |  |  |  |  |  |  |  | > 50 µM | Cbx6.VD chromodomain, Asp9/Glu33 (tags removed) (domain or fragment) GEDVFAAESIIKRRIRKGRIEYLVKWEGWAIKYSTWEPEENILDSRLIAAFEQKERERELYGP
